Our source for the Ki values is patent US6509033 (Harvard, dated 2003).

What is called Ki is a measure of affinity in units of concentration, obtained from inhibition or displacement.

In this assay the target is 'Empty' HLA-DR1 purified from insect cells expressing recombinant DR1 cDNA (human).

YKHTLNQIDSVKVWPRR [Bovine Fetuin 56-72]: the Ki is 66 nM. The same measure for VGSDWRFLRGYHQYA [Pseudo HLA-A2 103-117]: 49 nM; for RVEYHFLSPYVSPKESP [Transferrin Recpt. 680-696]: < 10 nM; for KMRMATPLLMQALPM [Invariant Chain (Ii) 107-121]: < 10 nM. Take LPKPPKPVSKMRMAT [Ii 97-111]: the Ki was > 10000 nM.

As to SDLSFSKDWSFYL [β2m 52-64], the Ki was > 10000 nM.

Regarding IPADLRIISANGCKVDNS [Na+/K+ ATPase 199-216], the inhibition constant (Ki) was determined as 68 nM.
